Results on 1 molecule are retold here after patent publication US20230272390A1, “COMPOSITIONS AND METHODS FOR HEMOGLOBIN PRODUCTION” (THE CHILDREN'S HOSPITAL OF PHILADELPHIA, priority 2020, published 2023).

In experiment [1] the test system is negative control oligo (shares 7/17 bp with the consensus motif). As to the kind of experiment: Fluorescence polarization DNA binding assay, negative control oligo. The following applies: same conditions. How it is done:
(§1) The fragment of Human ZNF410 (NP_001229855.1) comprising of five zinc finger domains ZF1-5 (residues 217-366) was cloned into pGEX-6P-1 vector with a GST fusion tag (pXC2180). The plasmid was transformed into Escherichia coli strain BL21-Codon-plus(DE3)-RIL (Stratagene). Bacteria was grown in LB broth in a shaker at 37° C. until reaching the log phase (A600 nm between 0.4 and 0.5), the shaker temperature was then set to 16° C. and 25 μM ZnCl2 was added to the cell culture. When the shaker temperature reached 16° C. and A600 nm reached ˜0.8, the protein expression was induced by the addition of 0.2 mM isopropyl-3-D-thiogalactopyranoside with subsequent growth for 20 hours at 16° C. […]
(§2) Fluorescence polarization (FP) method was used to measure the binding affinity using a Synergy™ 4 Microplate Reader (BioTek). […]
(§3) To further gain insight into the molecular basis of how the ZNF410 tandem ZF domain recognizes its targeting DNA sequence, crystallization of the ZNF410-DNA complex was performed. The binding affinity of the ZNF410 ZF domain (ZF1-5) with the consensus motif was quantified by fluorescence polarization using purified GST fusion protein (Patel, et al. (2016) Methods Enzymol., 573:387-401). […]

Experiment [2] concerns the target oligo containing the consensus motif. As to the kind of experiment: Fluorescence polarization DNA binding assay, consensus oligo. Also on record: species or system human. The following applies: purified GST fusion protein, 17-bp oligo containing the consensus motif, read-out: dissociation constant (KD). How it is done:
as §1, §2, §3

B1: ZF1-5: fragment of human ZNF410 comprising five zinc finger domains ZF1-5 (residues 217-366); dominant-negative when overexpressed (protein)
chain: KKLKCTVEGCDRTFVWPAHFKYHLKTHRNDRSFICPAEGCGKSFYVLQRLKVHMRTHNGEKPFMCHESGCGKQFTTAGNLKNHRRIHTGEKPFLCEAQGCGRSFAEYSSLRKHLVVHSGEKPHQCQVCGKTFSQSGSRNVHMRKHHLQLG
modifications: left off: small tags and cut ends
notes: fragment of human ZNF410 comprising five zinc finger domains ZF1-5 (residues 217-366); dominant-negative when overexpressed
Take B1: the “binding to the negative control oligo” value in experiment [1] is recorded as “no measurable binding”. Besides, the Kd in experiment [2] was found to be 22 nM.
